Assay results published in US20130331690A1, “VASCULAR IMAGING AGENTS” (GE HEALTHCARE AS, priority 2010, published 2013).

How the values were obtained:
[1] = Blood clearance vs time, bi-phasic exponential decay curve fit; assay type: in vivo, rat; conditions: rats
[2] = Optical biodistribution (ADME profile) in MatBIII orthotopic tumor model; assay type: in vivo, rat; conditions: for Biodistribution, Bladder / Biodistribution, Blood / Biodistribution, Eye / Biodistribution, Kidney / Biodistribution, Liver / Biodistribution, Skin / Biodistribution, Spleen / Biodistribution, Tumor: MatBIII tumor-bearing rats, 125 nmol/kg
Procedure: (§1) In vivo studies were carried out with female Fischer 344 rats or severe combined immunodeficient (SCID) mice, each with an age between 4 and 8 weeks. Animals were housed with non-fluorescent food (Harlan Labs, cat. #TD.97184) and water ad libitum and a standard 12 hour day-night lighting cycle. 1×10^6 cells (100 μL) were injected, using a 27 gauge needle, directly orthotopically into the mammary fat pad of the animal. After allowing 7 days for MatBIII tumor growth (˜1 cm in diameter), animals were injected with test agent and imaged.
The ADME profile of Compound 1 was studied by performing optical biodistribution studies in the MatB III in vivo orthotopic tumor model. Thus, a dose of 125 nmol/kg (volume ˜250-300 μL) was used for the study with an equal volume of PBS used as a negative control. For naïve animals, each tissue type was split into four tubes to ensure sufficient volume for standard preparation. Tissues included blood, bladder/urine, liver, kidney, spleen, eyes, fat, muscle, tumor, and skin collected from the contralateral side from tumor. Using the supernatant from naïve samples (pooled by tissue type), standards were made by adding agent at concentrations of 75 μM, 37.5 μM, 3.75 μM, 0.375 μM and 0 μM, dilutions made with PBS. This yielded a final concentration of 20% injected dose (ID), 10%, 1%, […] and 0. To determine the amount of dye contained in each tissue type, 90 μL of sample or standard was read on a spectrophotometer at settings of 710 excitation/805 Emission.
Samples were adjusted for weight, but there was some sample-to-sample variation.

MatBIII tumour model = assay: In vivo fluorescence imaging in the rat MatBIII tumour model; conditions: fluorescence image 1 hour after iv injection, FIG. 2
Procedure: as §1
Compound 1 was studied in the MatBIII model described in Example 3. The dose was either 125 or 250 nmol dye/kg body weight. The fluorescence imaging system was comprised of a 12 bit cooled CCD camera (Hamamatsu ORCA), and with a 735 laser source providing the excitation light. The fluorescence signal was filtered with a band pass emission filter set (810 nm centre frequency, 90 nm bandwidth). 50 ms exposure time was used with 2×2 binning.
For immobilisation during the optical imaging procedure, the animals were anaesthetized in a coaxial open mask to surgical level anaesthesia with Isoflurane (typically 2-3%) with oxygen as the carrier gas. During injection and intermediate time point imaging a lighter anaesthesia level was used. The animals were imaged from above, lying on their backs. […]

[3] = of the fluorescence efficiency of fluorescein; cited from earlier work

Bis-Cy7 PEG-31k Conjugate [Compound 1]
Blood half-life t1/2α [1]: 4.6 min | Blood half-life t1/2β [1]: 4.33 h | Retention of the agent in all of the collected tissues ([2]; 48 h post injection): < 1 % ID/g | Biodistribution, Bladder ([2]; 2 min): 0.00 % ID/g | Biodistribution, Blood ([2]; 2 min): 6.56 % ID/g | Biodistribution, Eye ([2]; 2 min): 1.93 % ID/g | Biodistribution, Kidney ([2]; 2 min): 0.12 % ID/g | Biodistribution, Liver ([2]; 2 min): 0.24 % ID/g | Biodistribution, Skin ([2]; 2 min): 0.00 % ID/g | Biodistribution, Spleen ([2]; 2 min): 0.64 % ID/g | Biodistribution, Tumor ([2]; 2 min): 0.00 % ID/g | Biodistribution, Bladder ([2]; 5 min): 0.23 % ID/g | Biodistribution, Blood ([2]; 5 min): 5.65 % ID/g | Biodistribution, Eye ([2]; 5 min): 0.14 % ID/g | Biodistribution, Kidney ([2]; 5 min): 1.35 % ID/g | Biodistribution, Liver ([2]; 5 min): 0.46 % ID/g | Biodistribution, Skin ([2]; 5 min): 0.56 % ID/g | Biodistribution, Spleen ([2]; 5 min): 0.64 % ID/g | Biodistribution, Tumor ([2]; 5 min): 0.53 % ID/g | Biodistribution, Bladder ([2]; 10 min): 1.24 % ID/g | Biodistribution, Blood ([2]; 10 min): 4.26 % ID/g | Biodistribution, Eye ([2]; 10 min): 1.70 % ID/g | Biodistribution, Kidney ([2]; 10 min): 0.41 % ID/g | Biodistribution, Liver ([2]; 10 min): 0.03 % ID/g | Biodistribution, Skin ([2]; 10 min): 0.00 % ID/g | Biodistribution, Spleen ([2]; 10 min): 1.00 % ID/g | Biodistribution, Tumor ([2]; 10 min): 0.00 % ID/g | Biodistribution, Bladder ([2]; 60 min): 0.86 % ID/g | Biodistribution, Blood ([2]; 60 min): 3.05 % ID/g | Biodistribution, Eye ([2]; 60 min): 0.33 % ID/g | Biodistribution, Kidney ([2]; 60 min): 0.51 % ID/g | Biodistribution, Liver ([2]; 60 min): 1.02 % ID/g | Biodistribution, Skin ([2]; 60 min): 0.05 % ID/g | Biodistribution, Spleen ([2]; 60 min): 0.28 % ID/g | Biodistribution, Tumor ([2]; 60 min): 0.00 % ID/g | Biodistribution, Bladder ([2]; 180 min): 0.00 % ID/g | Biodistribution, Blood ([2]; 180 min): 2.19 % ID/g | Biodistribution, Eye ([2]; 180 min): 0.12 % ID/g | Biodistribution, Kidney ([2]; 180 min): 0.63 % ID/g | Biodistribution, Liver ([2]; 180 min): 2.04 % ID/g | Biodistribution, Skin ([2]; 180 min): 0.06 % ID/g | Biodistribution, Spleen ([2]; 180 min): 0.32 % ID/g | Biodistribution, Tumor ([2]; 180 min): 0.05 % ID/g | Biodistribution, Bladder ([2]; 2880 min): 0.00 % ID/g | Biodistribution, Blood ([2]; 2880 min): 0.02 % ID/g | Biodistribution, Eye ([2]; 2880 min): 0.44 % ID/g | Biodistribution, Kidney ([2]; 2880 min): 0.00 % ID/g | Biodistribution, Liver ([2]; 2880 min): 0.23 % ID/g | Biodistribution, Skin ([2]; 2880 min): 0.00 % ID/g | Biodistribution, Spleen ([2]; 2880 min): 0.00 % ID/g | Biodistribution, Tumor ([2]; 2880 min): 0.61 % ID/g | Image contrast of blood vessels and blood-rich tumour (MatBIII tumour model): positive image contrast

CC1(C)C(/C=C/C=C/C=C/C=C2\N(CCCCS(=O)(=O)O)c3ccc4ccccc4c3C2(C)C)=[N+](CCCCS(=O)(=O)[O-])c2ccc3ccccc3c21 [ICG, indocyanine green]
Fluorescence efficiency relative to fluorescein [3]: 4%
